Laboratory results from the Human Domainome abundance scans (Beltran et al. 2025).
± gives the uncertainty stated by the source.

B1: Transcriptional repressor p66-beta, residues 415 to 455; numbered along this chain, Q8WXI9 (parent)
chain: VEPFVCAQCRTDFTPHWKQEKNGKILCEQCMTSNQKKALKA
B2: 1-phosphatidylinositol 4,5-bisphosphate phosphodiesterase gamma-2, residues 772 to 827; numbered along this chain, P16885 (parent)
chain: RTVKALYDYKAKRSDELSFCRGALIHNVSKEPGGWWKGDYGTRIQQYFPSNYVEDI

Variants of: B1
Experiment: abundance fitness (aPCA) (normalised: wild type 0, dead -1); higher = more abundant; growth selection in yeast, the domain comes from the species named
Conditions: Homo sapiens
For N34G, the abundance fitness was -0.156 ± 0.07.
With N34M the abundance fitness was -0.371 ± 0.2.
N34W gave an abundance fitness of -0.67 ± 0.12.
For N34K, the abundance fitness was -0.254 ± 0.14.
Variant N34V has an abundance fitness of -0.223 ± 0.065.
With N34P the abundance fitness was -0.257 ± 0.11.
Work on N34Q yielded an abundance fitness of -0.083 ± 0.082.
Variant N34T has an abundance fitness of -0.199 ± 0.13.
For N34R, the abundance fitness was -0.179 ± 0.064.
With N34H the abundance fitness was -0.077 ± 0.1.
N34I showed an abundance fitness of -0.088 ± 0.41.
N34L gave an abundance fitness of -0.327 ± 0.092.
N34F showed an abundance fitness of -0.206 ± 0.13.
N34Y gave an abundance fitness of -0.287 ± 0.18.
For L39I, the abundance fitness was 0.122 ± 0.18.
L39H showed an abundance fitness of -0.078 ± 0.14.
In the case of L39N, the abundance fitness is reported as 0.54 ± 0.45.
L39G showed an abundance fitness of 0.157 ± 0.052.
With L39E the abundance fitness was -0.108 ± 0.1.
Variant L39A has an abundance fitness of -0.083 ± 0.079.
Work on L39T yielded an abundance fitness of -0.199 ± 0.13.
For L39Q, the abundance fitness was -0.291 ± 0.17.
L39C gave an abundance fitness of -0.1 ± 0.16.
Work on L39R yielded an abundance fitness of -0.016 ± 0.061.
Work on L39S yielded an abundance fitness of 0.094 ± 0.097.
In the case of L39F, the abundance fitness is reported as -0.425 ± 0.26.
For L39K, the abundance fitness was -0.015 ± 0.13.
For L39Y, the abundance fitness was 0.577 ± 0.33.
With L39V the abundance fitness was 0.078 ± 0.061.
L39D gave an abundance fitness of -0.558 ± 0.3.
K36A gave an abundance fitness of -0.062 ± 0.073.
With K36D the abundance fitness was -0.239 ± 0.14.
Variant K36S has an abundance fitness of -0.113 ± 0.089.
In the case of K36Q, the abundance fitness is reported as 0.105 ± 0.14.
In the case of K36I, the abundance fitness is reported as -0.198 ± 0.4.
In the case of K36M, the abundance fitness is reported as -0.078 ± 0.09.
For K36G, the abundance fitness was -0.006 ± 0.053.
Variant K36E has an abundance fitness of -0.09 ± 0.082.
K36W gave an abundance fitness of -0.256 ± 0.085.
Work on K36P yielded an abundance fitness of -0.242 ± 0.14.
With K36C the abundance fitness was -0.275 ± 0.12.
For K36F, the abundance fitness was -0.324 ± 0.17.
For K36T, the abundance fitness was -0.024 ± 0.075.
For K36R, the abundance fitness was -0.168 ± 0.068.
Work on K36L yielded an abundance fitness of -0.329 ± 0.11.
Work on K36V yielded an abundance fitness of -0.277 ± 0.07.
K36N showed an abundance fitness of 0.14 ± 0.26.
Variant K40E has an abundance fitness of 0.084 ± 0.089.
K40W showed an abundance fitness of -0.393 ± 0.11.
In the case of K40G, the abundance fitness is reported as 0.06 ± 0.064.
K40M gave an abundance fitness of -0.066 ± 0.18.
Variant K40P has an abundance fitness of 0.229 ± 0.24.
Variant K40H has an abundance fitness of -0.125 ± 0.25.
K40T showed an abundance fitness of 0.071 ± 0.08.
K40L showed an abundance fitness of -0.467 ± 0.12.
In the case of K40C, the abundance fitness is reported as -0.144 ± 0.15.
Work on K40A yielded an abundance fitness of -0.025 ± 0.071.
For K40V, the abundance fitness was -0.121 ± 0.069.
Work on K40Q yielded an abundance fitness of -0.218 ± 0.23.
K40R gave an abundance fitness of 0.285 ± 0.065.
With K40S the abundance fitness was -0.073 ± 0.11.
Work on K40N yielded an abundance fitness of 0.079 ± 0.19.
Variant A41R has an abundance fitness of -0.071 ± 0.079.
Variant A41K has an abundance fitness of -0.091 ± 0.43.
Work on A41E yielded an abundance fitness of -0.02 ± 0.27.
For A41W, the abundance fitness was 0.002 ± 0.49.
A41M gave an abundance fitness of -0.247 ± 0.2.
Variant A41V has an abundance fitness of 0.153 ± 0.18.
A41G showed an abundance fitness of 0.01 ± 0.075.
A41S showed an abundance fitness of 0.004 ± 0.23.
With A41C the abundance fitness was -0.215 ± 0.2.
For A41L, the abundance fitness was 0.211 ± 0.14.
A38S showed an abundance fitness of 0.066 ± 0.12.
A38T showed an abundance fitness of 0.687 ± 0.36.
With A38Q the abundance fitness was -0.541 ± 0.44.
A38E showed an abundance fitness of 0.167 ± 0.083.
For A38P, the abundance fitness was -0.509 ± 0.47.
For A38Y, the abundance fitness was -0.228 ± 0.21.
A38K gave an abundance fitness of 0.059 ± 0.096.
In the case of A38W, the abundance fitness is reported as -0.398 ± 0.12.
For A38R, the abundance fitness was -0.19 ± 0.064.
A38D gave an abundance fitness of 0.046 ± 0.13.
In the case of A38M, the abundance fitness is reported as -0.181 ± 0.13.
For A38G, the abundance fitness was -0.213 ± 0.057.
A38H gave an abundance fitness of -0.32 ± 0.36.
Variant A38L has an abundance fitness of -0.053 ± 0.094.
Work on A38V yielded an abundance fitness of -0.04 ± 0.073.
In the case of Q35S, the abundance fitness is reported as -0.087 ± 0.19.
Q35V showed an abundance fitness of -0.339 ± 0.086.
Q35A showed an abundance fitness of -0.117 ± 0.063.
Q35E gave an abundance fitness of 0.025 ± 0.08.
For Q35M, the abundance fitness was -0.157 ± 0.18.
Q35T showed an abundance fitness of 0.018 ± 0.24.
Q35P gave an abundance fitness of -0.223 ± 0.12.
For Q35R, the abundance fitness was -0.197 ± 0.067.
Work on Q35C yielded an abundance fitness of -0.218 ± 0.14.
In the case of Q35Y, the abundance fitness is reported as 0.116 ± 0.43.
For Q35K, the abundance fitness was -0.136 ± 0.26.
Q35I gave an abundance fitness of -0.378 ± 0.16.
Work on Q35G yielded an abundance fitness of -0.152 ± 0.058.
Q35D gave an abundance fitness of -0.103 ± 0.1.
For Q35L, the abundance fitness was -0.365 ± 0.1.
Variant K37N has an abundance fitness of -0.226 ± 0.19.
For K37M, the abundance fitness was 0.095 ± 0.13.
Variant K37D has an abundance fitness of -0.191 ± 0.21.
Variant K37V has an abundance fitness of -0.035 ± 0.076.
With K37H the abundance fitness was -0.176 ± 0.23.
K37Y gave an abundance fitness of -0.116 ± 0.2.
Variant K37R has an abundance fitness of -0.074 ± 0.064.
Work on K37I yielded an abundance fitness of -0.092 ± 0.24.
K37G gave an abundance fitness of -0.015 ± 0.056.
In the case of K37C, the abundance fitness is reported as -0.309 ± 0.14.
For K37Q, the abundance fitness was 0.168 ± 0.079.
Variant K37E has an abundance fitness of 0.142 ± 0.066.
In the case of K37P, the abundance fitness is reported as 0.1 ± 0.088.
In the case of K37L, the abundance fitness is reported as -0.036 ± 0.08.
Variant K37A has an abundance fitness of 0.018 ± 0.067.
Variant K37S has an abundance fitness of -0.056 ± 0.093.
K37T showed an abundance fitness of -0.027 ± 0.11.

Variants of: B2
Experiment: as above
Conditions: Homo sapiens
VTVKALYDYKAKRSDELSFCRGALIHNVSKEPGGWWKGDYGTRIQQYFPSNYVEDI [R1V] gave an abundance fitness of 0.257 ± 0.36.
ITVKALYDYKAKRSDELSFCRGALIHNVSKEPGGWWKGDYGTRIQQYFPSNYVEDI [R1I] gave an abundance fitness of -0.141 ± 0.32.
Variant GTVKALYDYKAKRSDELSFCRGALIHNVSKEPGGWWKGDYGTRIQQYFPSNYVEDI [R1G] has an abundance fitness of -0.328 ± 0.12.
CTVKALYDYKAKRSDELSFCRGALIHNVSKEPGGWWKGDYGTRIQQYFPSNYVEDI [R1C] showed an abundance fitness of -0.495 ± 0.38.
For YTVKALYDYKAKRSDELSFCRGALIHNVSKEPGGWWKGDYGTRIQQYFPSNYVEDI [R1Y], the abundance fitness was 0.164 ± 0.061.
ETVKALYDYKAKRSDELSFCRGALIHNVSKEPGGWWKGDYGTRIQQYFPSNYVEDI [R1E] showed an abundance fitness of -0.056 ± 0.14.
In the case of WTVKALYDYKAKRSDELSFCRGALIHNVSKEPGGWWKGDYGTRIQQYFPSNYVEDI [R1W], the abundance fitness is reported as 0.23 ± 0.16.
TTVKALYDYKAKRSDELSFCRGALIHNVSKEPGGWWKGDYGTRIQQYFPSNYVEDI [R1T] gave an abundance fitness of 0.417 ± 0.11.
For MTVKALYDYKAKRSDELSFCRGALIHNVSKEPGGWWKGDYGTRIQQYFPSNYVEDI [R1M], the abundance fitness was -0.07 ± 0.25.
Variant RGVKALYDYKAKRSDELSFCRGALIHNVSKEPGGWWKGDYGTRIQQYFPSNYVEDI [T2G] has an abundance fitness of -0.578 ± 0.1.
REVKALYDYKAKRSDELSFCRGALIHNVSKEPGGWWKGDYGTRIQQYFPSNYVEDI [T2E] showed an abundance fitness of -0.279 ± 0.28.
With RCVKALYDYKAKRSDELSFCRGALIHNVSKEPGGWWKGDYGTRIQQYFPSNYVEDI [T2C] the abundance fitness was -0.344 ± 0.2.
With RAVKALYDYKAKRSDELSFCRGALIHNVSKEPGGWWKGDYGTRIQQYFPSNYVEDI [T2A] the abundance fitness was -0.287 ± 0.11.
Work on RFVKALYDYKAKRSDELSFCRGALIHNVSKEPGGWWKGDYGTRIQQYFPSNYVEDI [T2F] yielded an abundance fitness of -0.702 ± 0.41.
